# Experimental data reported in paper PMC11272584 (Nature Metabolism, 2024).
# Changes are numbered by the printed parent chain. Names and notes keep the numbering of the source.
# T1: GIPR T116R (Homo sapiens, UniProt P48546, T116R)
# T1 construct: host or cells: HEK293
# T1 sequence (P48546 22-466 T116R): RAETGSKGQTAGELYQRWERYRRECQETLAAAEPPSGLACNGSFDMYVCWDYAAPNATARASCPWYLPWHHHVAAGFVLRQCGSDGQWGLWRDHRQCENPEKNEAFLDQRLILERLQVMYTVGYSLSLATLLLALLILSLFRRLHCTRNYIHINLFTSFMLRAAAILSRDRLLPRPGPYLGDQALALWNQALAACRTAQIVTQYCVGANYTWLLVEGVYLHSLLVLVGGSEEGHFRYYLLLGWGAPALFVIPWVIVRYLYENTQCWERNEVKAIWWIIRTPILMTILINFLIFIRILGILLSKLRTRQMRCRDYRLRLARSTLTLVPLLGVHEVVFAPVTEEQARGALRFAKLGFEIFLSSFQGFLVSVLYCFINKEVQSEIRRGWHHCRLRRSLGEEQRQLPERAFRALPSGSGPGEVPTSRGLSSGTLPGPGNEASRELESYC
# T2: GIPR A150T (Homo sapiens, UniProt P48546, A150T)
# T2 construct: host or cells: HEK293
# T2 sequence (P48546 22-466 A150T): T1 sequence (P48546 22-466 T116R) with R95T, A129T
# T3: GIPR R164Q (Homo sapiens, UniProt P48546, R164Q)
# T3 construct: host or cells: HEK293
# T3 sequence (P48546 22-466 R164Q): T1 sequence (P48546 22-466 T116R) with R95T, R143Q
# T4: GIPR R164W (Homo sapiens, UniProt P48546, R164W)
# T4 construct: host or cells: HEK293
# T4 sequence (P48546 22-466 R164W): T1 sequence (P48546 22-466 T116R) with R95T, R143W
# T5: GIPR T168A (Homo sapiens, UniProt P48546, T168A)
# T5 construct: host or cells: HEK293
# T5 sequence (P48546 22-466 T168A): T1 sequence (P48546 22-466 T116R) with R95T, T147A
# T6: GIPR H166Y (Homo sapiens, UniProt P48546, H166Y)
# T6 construct: host or cells: HEK293
# T6 sequence (P48546 22-466 H166Y): T1 sequence (P48546 22-466 T116R) with R95T, H145Y
# T7: GIPR R101H (Homo sapiens, UniProt P48546, R101H)
# T7 construct: host or cells: HEK293
# T7 sequence (P48546 22-466 R101H): T1 sequence (P48546 22-466 T116R) with R80H, R95T
# T8: GIPR G144S (Homo sapiens, UniProt P48546, G144S)
# T8 construct: host or cells: HEK293
# T8 sequence (P48546 22-466 G144S): T1 sequence (P48546 22-466 T116R) with R95T, G123S
# B1: T116R (protein)
# chain: T1 sequence (P48546 22-466 T116R)
# B2: A150T (protein)
# chain: T1 sequence (P48546 22-466 T116R) with R95T, A129T
# B3: R164Q (protein)
# chain: T1 sequence (P48546 22-466 T116R) with R95T, R143Q
# B4: R164W (protein)
# chain: T1 sequence (P48546 22-466 T116R) with R95T, R143W
# B5: R101H (protein)
# chain: T1 sequence (P48546 22-466 T116R) with R80H, R95T
# B6: H166Y (protein)
# chain: T1 sequence (P48546 22-466 T116R) with R95T, H145Y
# B7: G144S (protein)
# chain: T1 sequence (P48546 22-466 T116R) with R95T, G123S
# B8: T168A (protein)
# chain: T1 sequence (P48546 22-466 T116R) with R95T, T147A
# Target: T1, GIPR T116R
# Test: cAMP accumulation
# Assay type: cell-based
# Conditions: not given
# Experimental: HEK293 (CRL-1573, American Type Culture Collection) and β-arrestin 1/2 knockout cells, generated from HEK293A[48], were used for cAMP measurement, homologues competition binding and β-arrestin 2 recruitment. For the internalization assay, endosomal signalling and basal receptor localization experiments, HEK293A (R70507, Thermo Fisher) cells were used. Both cell lines were cultured at 5% CO2 at 37 °C in Roswell Park Memorial Institute GlutaMAX-I supplemented with 10% fetal bovine serum, 180 units ml^−1 penicillin, and 45 g ml^−1 streptomycin. For the cAMP and binding experiments, cells were transfected with the calcium phosphate precipitation method[49]. The polyethyleneimine (PEI) transfection method was used for the β-arrestin 2 recruitment assays[50], endosomal signalling and basal receptor localization assays, while the lipofectamine transfection method was used for the internalization assay.
# cAMP production was measured with the DiscoverX Hithunter cAMP assay according to the manufacturer’s protocol (DiscoverX). […] On the day of the assay, the cells were washed twice with HEPES-buffered saline (HBS) and incubated with HBS and 1 mM 3-isobutyl-1-methylxanthine for 30 min at 37 °C. […] After a 3-h incubation on a shaking table in the dark, the cAMP accumulation was measured based on luminescence with a Perkin Elmer EnVision 2104 Multilabel Microplate Reader. […]
row,Efficacy at 100pmol (cAMP),Molecule
1,0.03526,B1

# Target: T2, GIPR A150T
# Test: cAMP accumulation
# Assay type: cell-based
# Conditions: not given
row,Efficacy at 100pmol (cAMP),Molecule
1,0.1631,B2

# Target: T3, GIPR R164Q
# Test: cAMP accumulation
# Assay type: cell-based
# Conditions: not given
row,Efficacy at 100pmol (cAMP),Molecule
1,1.15,B3

# Target: T4, GIPR R164W
# Test: cAMP accumulation
# Assay type: cell-based
# Conditions: not given
row,Efficacy at 100pmol (cAMP),Molecule
1,0.003189,B4

# System: GIPR variants (groups)
# Test: cAMP accumulation
# Assay type: cell-based, human
# Conditions: cAMP part of the in vitro group
row,Molecule,In vitro groups (cAMP)
1,B5,LoF_camp
2,B1,LoF_camp
3,B6,WT-like_camp
4,B3,WT-like_camp
5,B2,LoF_camp
6,B7,LoF_camp
7,B8,LoF_camp
8,B4,LoF_camp

# Same assay, conditions: cAMP production compared with WT
row,Molecule,percentage_camp
1,B5,<50% cAMP
2,B1,<50% cAMP
3,B6,>50% cAMP
4,B3,>50% cAMP
5,B2,<50% cAMP
6,B7,<50% cAMP
7,B8,<50% cAMP
8,B4,<50% cAMP

# Same assay, conditions: in vitro cAMP production per GIPR variant
row,Molecule,"Beta, cAMP"
1,B5,0
2,B1,0
3,B6,0.9566
4,B3,1.15
5,B2,0.1631
6,B7,0.204
7,B8,0.2182
8,B4,0.003189

# Target: T5, GIPR T168A
# Test: cAMP accumulation
# Assay type: cell-based
# Conditions: not given
row,Efficacy at 100pmol (cAMP),Molecule
1,0.2182,B8

# Target: T6, GIPR H166Y
# Test: cAMP accumulation
# Assay type: cell-based
# Conditions: not given
row,Efficacy at 100pmol (cAMP),Molecule
1,0.9566,B6

# Target: T7, GIPR R101H
# Test: cAMP accumulation
# Assay type: cell-based
# Conditions: not given
row,Efficacy at 100pmol (cAMP),Molecule
1,0,B5

# Target: T8, GIPR G144S
# Test: cAMP accumulation
# Assay type: cell-based
# Conditions: not given
row,Efficacy at 100pmol (cAMP),Molecule
1,0.204,B7

# System: GIPR variants (groups)
# Test: β-arrestin 2 recruitment (BRET);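 also: BRET readout of β-arrestin 2 recruitment in transiently transfected HEK293 cells expressing WT GIPR or a GIPR variant plus GPCR kinase 2, Rluc8 donor and citrine acceptor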
# Conditions: arr part of the in vitro group
row,Molecule,In vitro groups (β-arrestin)
1,B5,LoF_arr
2,B1,WT-like_arr
3,B6,LoF_arr
4,B3,LoF_arr
5,B2,WT-like_arr
6,B7,LoF_arr
7,B8,LoF_arr
8,B4,LoF_arr

# Same assay, conditions: in vitro β-arrestin recruitment per GIPR variant
row,Molecule,"Beta, Barr"
1,B5,0
2,B1,0.6218
3,B6,0.3616
4,B3,0.3053
5,B2,0.8173
6,B7,0
7,B8,0.2206
8,B4,0
